Results taken from US20150057236.

Row | Protein | hydrolysis of acyl peptide (LC-MS) (H3K9 succinyl peptide) | hydrolysis of acyl peptide (LC-MS) (H3K9 malonyl peptide) | Km for acetyl peptide (H3K9 acetyl peptide) | hydrolysis of acyl peptide (LC-MS) (H3K9 acetyl peptide) | kcat (H3K9 acetyl peptide) | kcat/Km (s^-1M^-1) (H3K9 acetyl peptide)
1 | human Sirt1 (protein) MADEAALALQPGGSPSAAGADREAASSPAGEPLRKRPRRDGPGLERSPGEPGGAAPEREVPAAARGCPGAAAAALWREAEAEAAAAGGEQEAQATAAAGEGDNGPGLQGPSREPPLADNLYDEDDDDEGEEEEEAAAAAIGYRDNLLFGDEIITNGFHSCESDEEDRASHASSSDWTPRPRIGPYTFVQQHLMIGTDPRTILKDLLPETIPPPELDDMTLWQIVINILSEPPKRKKRKDINTIEDAVKLLQECKKIIVLTGAGVSVSCGIPDFRSRDGIYARLAVDFPDLPDPQAMFDIEYFRKDPRPFFKFAKEIYPGQFQPSLCHKFIALSDKEGKLLRNYTQNIDTLEQVAGIQRIIQCHGSFATASCLICKYKVDCEAVRGDIFNQVVPRCPRCPADEPLAIMKPEIVFFGENLPEQFHRAMKYDKDEVDLLIVIGSSLKVRPVALIPSSIPHEVPQILINREPLPHLHFDVELLGDCDVIINELCHRLGGEYAKLCCNPVKLSEITEKPPRTQKELAYLSELPPTPLHVSEDSSSPERTSPPDSSVIVTLLDQAAKSNDDLDVSESKGCMEEKPQEVQTSRNVESIAEQMENPDLKNVGSSTGEKNERTSVAGTVRKCWPNRVAKEQISRRLDGNQYLFLPPNRYIFHGAEVYSDSEDDVLSSSSCGSNSDSGTCQSPSLEEPMEDESEIEEFYNGLEDEPDVPERAGGAGFGTDGDDQEAINEAISVKQEVTDMNYPSNKS | but not the malonyl and succinyl peptides | but not the malonyl and succinyl peptides | 38 µM | Sirt1 catalyzed the hydrolysis of the acetyl peptide | 0.039 s⁻¹ | 1000 s^-1M^-1
2 | human Sirt2 (protein) MAEPDPSHPLETQAGKVQEAQDSDSDSEGGAAGGEADMDFLRNLFSQTLSLGSQKERLLDELTLEGVARYMQSERCRRVICLVGAGISTSAGIPDFRSPSTGLYDNLEKYHLPYPEAIFEISYFKKHPEPFFALAKELYPGQFKPTICHYFMRLLKDKGLLLRCYTQNIDTLERIAGLEQEDLVEAHGTFYTSHCVSASCRHEYPLSWMKEKIFSEVTPKCEDCQSLVKPDIVFFGESLPARFFSCMQSDFLKVDLLLVMGTSLQVQPFASLISKAPLSTPRLLINKEKAGQSDPFLGMIMGLGGGMDFDSKKAYRDVAWLGECDQGCLALAELLGWKKELEDLVRREHASIDAQSGAGVPNPSTSASPKKSPPPAKDEARTTEREKPQ | – | – | 190 µM | – | 0.03 s⁻¹ | 160 s^-1M^-1
3 | human Sirt3 (protein) ISFSVGASSVVGSGGSSDKGKLSLQDVAELIRARACQRVVVMVGAGISTPSGIPDFRSPGSGLYSNLQQYDLPYPEAIFELPFFFHNPKPFFTLAKELYPGNYKPNVTHYFLRLLHDKGLLLRLYTQNIDGLERVSGIPASKLVEAHGTFASATCTVCQRPFPGEDIRADVMADRVPRCPVCTGVVKPDIVFFGEPLPQRFLLHVVDFPMADLLLILGTSLEVEPFASLTEAVRSSVPRLLINRDLVGPLAWHPRSRDVAQLGDVVHGVESLVELLGWTEEMRDLVQRETGKLDGPDK | – | – | 50 µM | – | 0.012 s⁻¹ | 240 s^-1M^-1
4 | human Sirt7 (protein) MAAGGLSRSERKAAERVRRLREEQQRERLRQVSRILRKAAAERSAEEGRLLAESADLVTELQGRSRRREGLKRRQEEVCDDPEELRGKVRELASAVRNAKYLVVYTGAGISTAASIPDYRGPNGVWTLLQKGRSVSAADLSEAEPTLTHMSITRLHEQKLVQHVVSQNCDGLHLRSGLPRTAISELHGNMYIEVCTSCVPNREYVRVFDVTERTALHRHQTGRTCHKCGTQLRDTIVHFGERGTLGQPLNWEAATEAASRADTILCLGSSLKVLKKYPRLWCMTKPPSRRPKLYIVNLQWTPKDDWAALKLHGKCDDVMRLLMAELGLEIPAYSRWQDPIFSLATPLRAGEEGSHSRKSLCRSREEAPPGDRGAPLSSAPILGGWFGRGCTKRTKRKKVT | Sirt6 and Sirt7 have no detectable activity on acetyl, malonyl, or succinyl peptides under the conditions tested | Sirt6 and Sirt7 have no detectable activity on acetyl, malonyl, or succinyl peptides under the conditions tested | – | Sirt6 and Sirt7 have no detectable activity on acetyl, malonyl, or succinyl peptides under the conditions tested | – | –
